Data: publication PMC8934283 (Nature, 2022)

Assays:
Test in all cases: cryo-EM structure
ribosomal protein uS21 = ribosomal protein uS21 (E. coli, UniProt P68679 1-71)
ribosomal protein uS2 = ribosomal protein uS2 (E. coli, UniProt P0A7V0 1-241)
ribosomal protein uS3 = ribosomal protein uS3 (E. coli, UniProt P0A7V3 1-233)
ribosomal protein uS5 = ribosomal protein uS5 (E. coli, UniProt P0A7W1 1-166)
ribosomal protein uS11 = ribosomal protein uS11 (E. coli, UniProt P0A7R9 1-129)

Measured: binding result

B1: E. coli SmrB inactive mutant (99DLH101-ALA) (enzyme)
chain: MKKKTTLSEEDQALFRQLMAGTRKIKQDTIVHRPQRKKISEVPVKRLIQEQADASHYFSDEFQPLLNTEGPVKYVRPDVSHFEAKKLRRGDYSPELFLALAGLTQLQAKQELGALIAACRREHVFCACVMHGHGKHILKQQTPLWLAQHPHVMAFHQAPKEYGGDAALLVLIEVEEWLPPEL
binds: all assays above
